Test results as given in article PMC4391858.

Experiments:
[1] = cycloheximide chase, Western blot, CHO cells; conditions: glycan lost; control: wild type DLL3
[2] = confocal immunocytochemistry of coexpressed DLL1, CHO cells; conditions: glycan lost; control: wild type DLL3

B1: Delta-like 3 (DLL3): DLL3-S286A,T403V (protein)
parent chain: MVSLQVSPLSQTLILAFLLPQALPAGVFELQIHSFGPGPGLGTPRSPCNARGPCRLFFRVCLKPGVSQEATESLCALGAALSTSVPVYTEHPGESAAALPLPDGLVRVPFRDAWPGTFSLVIETWREQLGEHAGGPAWNLLARVVGRRRLAAGGPWARDVQRTGTWELHFSYRARCEPPAVGAACARLCRSRSAPSRCGPGLRPCTPFPDECEAPSVCRPGCSPEHGYCEEPDECRCLEGWTGPLCTVPVSTSSCLNSRVPGPASTGCLLPGPGPCDGNPCANGGSCSETSGSFECACPRGFYGLRCEVSGVTCADGPCFNGGLCVGGEDPDSAYVCHCPPGFQGSNCEKRVDRCSLQPCQNGGLCLDLGHALRCRCRAGFAGPRCEHDLDDCAGRACANGGTCVEGGGSRRCSCALGFGGRDCRERADPCASRPCAHGGRCYAHFSGLVCACAPGYMGVRCEFAVRPDGADAVPAAPRGLRQADPQRFLLPPALGLLVAAGLAGAALLVIHVRRRGPGQDTGTRLLSGTREPSVHTLPDALNNLRLQDGAGDGPSSSADWNHPEDGDSRSIYVIPAPSIYAREDWLIQVLF
degradation_or_half_life [1]: no change | localisation_or_trafficking, other: cells with DLL1 relocalised outside Golgi [2]: decreases, the intracellular DLL1 staining did not change obviously (10 out of 14 cells
